# Measurements from the nanobody polyreactivity screen of Harvey et al. (2022).
# Test: yeast display, Sf9 membrane polyspecificity reagent, FACS + sequencing; frameworks hold sequencing errors
# Outline: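 Synthetic nanobody libraries on Saccharomyces cerevisiae BJ5465 were galactose-induced for 36–48 hours, stained 1 hour at 4 °C with 10% biotinylated, detergent-solubilized Sf9 membrane reagent and enriched on streptavidin microbeads. FACS then separated cells into low and high (top ~1%) gates by anti-HA (expression) and streptavidin (reagent binding) fluorescence. Genes were colony-PCR amplified, MiSeq 2 × 250 sequenced and CDR-length filtered. A clone's polyreactivity label is that of its gate of origin.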
row,Sequence,polyreactivity (PSR sort gate)
1,QVQLVESGGGLVQAGGSLRLSCAASGFIFRGYAMGWYRQPPGKERELVATITNGGSTYYADSVKGRFTISRDNAKNTVYLQMNSLKPEDTAVYFCAAVTKFGEYAPGSKGYGYWGQGSQVTVSS,low polyreactivity
2,QVQLVESGGGLVQAGGSLRLSCAASGFIFRIYAMGWYRQAPGKERELVAAITWDGVSTYYADSVKGRFTISRDNAKNTVYLQMNSLKPEDTAVYYCAARKRSYPYYYWGQGTQVTVSS,high polyreactivity
3,QVQLVESGGGLVQAGGSLRLSCAASGFIFRNYAMGWSRQAPGKERELVAAITRSGTSTYYADSVKGRFTISRDNAKNTVYLQMNSLKPEDTAVYYCNAGWGLRLSWLGNYWGQGTQVTVSS,high polyreactivity
4,QVQLVESGGGLVQAGGSLRLSCAASGFIFRPYVMGWYRQAPGKERELVAAISRSGSSTYYADSVKGRFTISRDNAKNTVYLQMNSLQPEDTAVYYCARRTSQEFDYWGQGTQVTVSS,high polyreactivity
5,QVQLVESGGGLVQAGGSLRLSCAASGFIFRQNAMGWYRQAPGKERELVAAITSSGGRTYYADSVKGRFTISRDNAKNTVYLQMNSLKPEDTAVYYCARRDYWGQGTQVTVSS,high polyreactivity
6,QVQLVESGGGLVQAGGSLRLSCAASGFIFRRNAMGWSRQAPRKERELVAAISSRGGTTYYADSVKGRFTISRDNAKNTVYLQMNSLKPEDTAVYYCNAVKFGATAYDYWGQGTQVTVSS,high polyreactivity
7,QVQLVESGGGLVQAGGSLRLSCAASGFIFRRNAMGWYRQAPGKERELVASIRSGGSTKYADSVKGRFTISRDNAKNTVYLQMNSLKPEDTAVYYCAKDRYHISFFYQMEYWGQGTQVTVSS,low polyreactivity
8,QVQLVESGGGLVQAGGSLRLSCAASGFIFRRYAMGSYRQAPGKERELVAAISGSGGRTYYADSVKGRFTISRDNAKNTVYLQMNSLKPEDTAVYYCAADHGSLLYDYWGQGTQVTVSS,high polyreactivity
9,QVQLVESGGGLVQAGGSLRLSCAASGFIFRRYAMGWYRQAPGKERELVAAISGRGASTYYGDSVKGRFTISRDNAKNNVYVQMNSLKPEDTAAYYCNAVPDNLNYDYWGQGTQVTVSS,high polyreactivity
10,QVQLVESGGGLVQAGGSLRLSCAASGFIFRRYAMGWYRQPPGKERELVAAISGSGGRTYYADSVKGRFTISRDNAKNTVYLQMNSLKPEDTAVYYCAADHGSLLYDYWGQGTQVTVSS,high polyreactivity
11,QVQLVESGGGLVQAGGSLRLSCAASGFIFRRYTMGWYTQAPGKERELVATITRSVNTDYADSVKGRFTISRDNAKNTVYLQMNSLKPEDTAVYYCAARKYYYFPVAYDYWGQGTQVTVSS,high polyreactivity
12,QVQLVESGGGLVQAGGSLRLSCAASGFIFRSYAMGWYRQAPGKEREFVAAITTRGTGTYYADSVKGRFTISRDNAKNTVYLQMNSLKPEDTAVYDCAARRGWGDDYWGQGTQVTVSS,high polyreactivity
13,QVQLVESGGGLVQAGGSLRLSCAASGFIFRSYAMGWYRQAPGKEREFVASISSRGGTTYYADSVKGRFTISRDNAKNTVYLQMNSLKTEDTAVYYCYAKRRYGPDKYDYWGQGTQVTVSS,high polyreactivity
14,QVQLVESGGGLVQAGGSLRLSCAASGFIFRSYAMGWYRQAPGKERELVAAISRSGGSTYYADSVKGRFTISRDNAKNTVYLQMNSLKPEDTAVYYCNTARRDREVDYWGQGTQVTVSS,high polyreactivity
15,QVQLVESGGGLVQAGGSLRLSCAASGFIFRSYAMGWYRQAPGKERELVAVISRRGVNTHYADSVKGRFTISRDNAKNTVNLQMNSLKPEDTAVYYCAKGLTALGDYWGQGTQVTVSS,high polyreactivity
16,QVQLVESGGGLVQAGGSLRLSCAASGFIFRSYDMGWYRQAPGKERELVAAITRGGRTYYADSVKGRFTISRDNAKNTVYLQMNSLKPEDTAVYYCAARGTHVADGYYWGQGTQVTVSS,high polyreactivity
17,QVQLVESGGGLVQAGGSLRLSCAASGFIFRSYVMGWYRQAPGKEREFVAVITSSGGRTYYADSVKGRFTISRDNAKNTVYLQMNSLKPEDTAVYYCAATRRYPPRRVWYDYWGQGTEVTVSS,high polyreactivity
18,QVQLVESGGGLVQAGGSLRLSCAASGFIFRTYAMGWYRQAPGKERELVATITGDGSTNYADSVKGRFTISRDNAKNTVYLQMNSLKPEDTAVYYCSRDDRLAGDYWGQGTQVTVSS,low polyreactivity
19,QVQLVESGGGLVQAGGSLRLSCAASGFIFRVNAMGWYRQAPGKERELVATITWNGGSTYYADSVKGRFTISRDNAKNTVYLQMNSLKPEDTAVYYCNRVRYRGYYPGPYSYSYDYWGQGTQVTVSS,low polyreactivity
20,QVQLVESGGGLVQAGGSLRLSCAASGFIFRVYTMVWYRQAPGKERELVAAISYRGGRTYYADSVKGRFTISRDNAKNTVFLQMNSLKPEDTAVYYCAADRVNREFDYWGQGTQVTVSS,high polyreactivity
21,QVQLVESGGGLVQAGGSLRLSCAASGFIFRWYAMGWYRQAPGKERDLVATISSGGSTYYADSVKGRFTISRDNAMNTFYLQMISLKPEDTAVYYCAARFHYRGALYYYWGQGTQVTVSS,high polyreactivity
22,QVQLVESGGGLVQAGGSLRLSCAASGFIFRWYAMGWYRQAPGKERELVAAISRSGDSTYYADSVKGRFTISRDNAKNTVYLQMNSLKPEETAVYYCAADDRYYTYGYDYWGQGTQVTVSS,low polyreactivity

row,Sequence,polyreactivity (PSR sort gate)
1,QVQLVESGGGLVQAGGSLRLSCAASGFIFRYNAMGWYRQAPGKEREFVAAISQGGASTYYADSVKGRFTISRVNAKNTVYLQINSLKPEDTAVYYCAREPSIFTPSYDYWGQGTQVTVSS,low polyreactivity
2,QVQLVESGGGLVQAGGSLRLSCAASGFIFRYNAMGWYRQAPGKERELVAAIDSGGSTYYADSVKGRFTISRDNAKNTVYLQMNSLKPEDTAVYYCNAVHEASYAGVDYWGQGTQVTVSS,low polyreactivity
3,QVQLVESGGGLVQAGGSLRLSCAASGFIFRYNAMGWYRQAPGKERELVAAISWNGGRTYYADSVKGRFTISRDNAKNTVYLQMNSLKPEDTAVYYCAAELSSYFFSAGYDYWGQGTQVTVSS,high polyreactivity
4,QVQLVESGGGLVQAGGSLRLSCAASGFIFRYNAMGWYRQAPGKERELVAVITSGDNTYYADSVKGRFTISRDNAKNTVYLQMNSLKPEDTAVYYCAARYRHYFVRGGYWGQGTQVTVSS,high polyreactivity
5,QVQLVESGGGLVQAGGSLRLSCAASGFIFRYYAMGWYRQAAGTERELVAAISGGGSSTYYADSVKGRFTISRDNAKNTVYLQMNSLKPEDTAVYYSTARYYYPAIKYDYCGQGTQVTVSS,low polyreactivity
6,QVQLVESGGGLVQAGGSLRLSCAASGFIFRYYAMGWYRQAPGKERELVAAINRGGGTNYADSVKGRFTISRDNAKNTVYLQMNSLKPEDTAVYYCAAVIRTVRERYGYWGQGTQVTVSS,high polyreactivity
7,QVQLVESGGGLVQAGGSLRLSCAASGFIFRYYAMGWYRQAPGKERELVAAINTGGTTYYADSVKGRFTISRDNAKNTVYLQMNSLKPEDTAVYYCATDGSPGYDWGQGTQVTVSS,high polyreactivity
8,QVQLVESGGGLVQAGGSLRLSCAASGFIFRYYAMGWYRQAPGKERELVAAISRTGGSTYYADSVKGRFTISRDNAKNTVYLQMNSLKPEDTAVYYCAADWWAWRAYYYWGQGTQVTVSS,high polyreactivity
9,QVQLVESGGGLVQAGGSLRLSCAASGFIFRYYAMGWYRQAPGKERELVAAISSGGGTTYADSVKGRFTISRDNAKNTVYLQMNSLKPEDTAVYYCAAVSYYARYTYGYDYWGQGTQVTVSS,high polyreactivity
10,QVQLVESGGGLVQAGGSLRLSCAASGFIFRYYAMGWYRQAPGKERELVAAISSSGGSTRYADSVKGRFTISRDNAKNTVYLQMNSLKPEDTAVYYCAARRWRGRYWGDYWGQGTQVTVSS,high polyreactivity
11,QVQLVESGGGLVQAGGSLRLSCAASGFIFRYYAMGWYRQAPGKERELVAAISWSGGSTYYADSVKGRFTISRDNAKNTVYLQMNSLKPEDTAVYYCAADRYAILFYAEDYWGQGTQVTVSS,low polyreactivity
12,QVQLVESGGGLVQAGGSLRLSCAASGFIFRYYAMGWYRQAPGKERELVAAITWSGGSTYYADSVKGRFTISRDNAKNTVYLQMNSLKPEDTAVYYCAADLYYFRYPGYDYWGQGTQVTVSS,high polyreactivity
13,QVQLVESGGGLVQAGGSLRLSCAASGFIFRYYAMGWYRQAPGKERELVASIVWSGGNTYYADSVKGRFTISRDNAKNTVYLQMNSLKPEDTAVYYCNRRGMDWGQGTQVTVSS,low polyreactivity
14,QVQLVESGGGLVQAGGSLRLSCAASGFIFSFYAMGWYRQAPGKERALVAAINWSGGSTYYADSVKGRFTISRDNAKNTVYIQMNSLKPEDTEVYYCNAVQYFSIPKPVWLFVLRYYYWGQGTQVTVSS,low polyreactivity
15,QVQLVESGGGLVQAGGSLRLSCAASGFIFSGNAMGWYRQAPGKERELVAAISTSGGRTYYADSVKGRFTISRDNAKNSDYLQMKSLKPEDTAVYYFNRAPWYRYTRDKYEYWGQGTQVTVSS,high polyreactivity
16,QVQLVESGGGLVQAGGSLRLSCAASGFIFSGNAMGWYRQAPGKERELVARIRSGDRTYYADSVKGRFTISRDNAKNTVYLQMNSLKPEDTAVYYCAAYAWYDWRSYFPILGYEYCGQGTQVTVSS,low polyreactivity
17,QVQLVESGGGLVQAGGSLRLSCAASGFIFSGNAMGWYRQAPGKERELVARIRSGDRTYYADSVKGRFTISRDNAKNTVYLQMNSLKPEDTAVYYCAAYAWYDWRSYFPILGYEYWGQGTQVTVSS,low polyreactivity
18,QVQLVESGGGLVQAGGSLRLSCAASGFIFSGYAMGWYRQAPGKERELVAAITSSGGNTYYADSVKGRFTISRDNAKNTVYLQMNSLKAEDTAVYYCARYSIFRWTRDEYWGQGTQVTVSS,high polyreactivity
19,QVQLVESGGGLVQAGGSLRLSCAASGFIFSGYVMGWYRQAPGKERELVAAITGSDGSTYYADSVKGRFTISRDNAKNTVYLQMNSLKPEDTAVYYCATTFQYYWFSLYDYWGQGTQVTVSS,low polyreactivity
20,QVQLVESGGGLVQAGGSLRLSCAASGFIFSKYAMGWYRQAPGKERELVAAISWSGGSTYYADSVKGRFTISRDNAKNTVYLQMNSLKPEDTAVYYCAADWYFELFRVYAEYDYWGQGTQVTVSS,low polyreactivity
21,QVQLVESGGGLVQAGGSLRLSCAASGFIFSKYTMGWSRQAPGKERELVASISWSGGSTYYADSVKGRFTISRDTAKNTVFLQMNSLKPEDTAVYYCAAEAWGWVFGGYYYWGQGTQVTVSS,low polyreactivity
